Publication PMC3464217 (2012)

B1: 7B2 (antibody, V domains shown)
VH: QVQLVQSGGGVFKPGGSLRLSCEASGFTFTEYYMTWVRQAPGKGLEWLAYISKNGEYSKYSPSSNGRFTISRDNAKNSVFLQLDRLSADDTAVYYCARADGLTYFSELLQYIFDLWGQGARVTVSS
VL: DIVMTQSPDSLAVSPGERATIHCKSSQTLLYSSNNRHSIAWYQQRPGQPPKLLLYWASMRLSGVPDRFSGSGSGTDFTLTINNLQAEDVAIYYCHQYSSHPPTFGHGTRVELR
B2: HY (antibody, V domains shown)
VH: QVQLEQSGAEVKKPGASVKVSCQASGYRFSHFTVHWVRQAPGQRFEWMGWINPYNGNKEFSAKFQDRVTFTADTSANTAYMELRSLRSADTAVYYCARVGEWGWDDSPYDNYYMDVWGKGTTVIVSS
VL: EIVLTQSPGTLSLSPGERATFSCRSSHSIRSRRVAWYQHKPGQAPRLVIHGVSNRASGISDRFSGSGSGTDFTLTITRVEPEDFALYYCQVYGASSYTFGQGTKLERK

What was measured:
Assay in all cases: SPR
recombinant gp160 [1] = molecular target: T1, recombinant gp160 (HIV (IIIB or MN/LAI))
recombinant gp160 [2] = molecular target: T1, recombinant gp160; remark: listed apart in the source
recombinant gp160 [3] = molecular target: T1, recombinant gp160; remark: listed apart in the source

Binder | Ka (recombinant gp160 [1]) | koff (recombinant gp160 [2]) | Kd (recombinant gp160 [3])
B1 | 3.4e+09 M⁻¹ | 4.9e-05 s⁻¹ | 0.31 nM
B2 | 2.7e+06 M⁻¹ | 0.018 s⁻¹ | 370 nM
